From PMC10397247
Where two headings read alike, the source gives them in different places.

T1: P2-AA-12HAA-H
T1 chain: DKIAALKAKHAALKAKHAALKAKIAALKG

T2: P2-AA-12HAA-S
T2 chain: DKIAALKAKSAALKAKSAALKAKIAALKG

T3: P2-AA-12HAA-R
T3 chain: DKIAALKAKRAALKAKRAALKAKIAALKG

T4: P2-AA-12HAA-L
T4 chain: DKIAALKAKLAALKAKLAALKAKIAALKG

T5: P2-AA-12HAA-E
T5 chain: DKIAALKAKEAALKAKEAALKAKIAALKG

T6: P2-AA-12HAA-I
T6 chain: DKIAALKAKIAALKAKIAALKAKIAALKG

T7: P2-AA-12HAA-V
T7 chain: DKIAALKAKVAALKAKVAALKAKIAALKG

T8: P2-AA-12HAA-K
T8 chain: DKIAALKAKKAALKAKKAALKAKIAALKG

T9: P2-AA-12HAA-T
T9 chain: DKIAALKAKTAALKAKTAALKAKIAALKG

T10: P2-AA-12HAA-D
T10 chain: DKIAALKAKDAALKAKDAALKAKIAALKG

T11: P2-AA-12HAA-Y
T11 chain: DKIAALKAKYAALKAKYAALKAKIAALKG

T12: P2-AA
T12 chain: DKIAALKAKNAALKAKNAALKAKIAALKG

T13: P6-AA-1HAA-L
T13 chain: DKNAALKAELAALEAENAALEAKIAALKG

T14: P6-AA-1HAA-T
T14 chain: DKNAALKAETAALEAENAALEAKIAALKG

T15: P6-AA-1HAA-Y
T15 chain: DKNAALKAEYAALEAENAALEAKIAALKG

T16: P6-AA-1HAA-D
T16 chain: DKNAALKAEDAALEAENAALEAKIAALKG

T17: P6-AA-1HAA-E
T17 chain: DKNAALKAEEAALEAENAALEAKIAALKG

T18: P6-AA-1HAA-N
T18 chain: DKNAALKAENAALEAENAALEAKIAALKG

T19: P6-AA-1HAA-H
T19 chain: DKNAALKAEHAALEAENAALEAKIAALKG

T20: P6-AA-1HAA-S
T20 chain: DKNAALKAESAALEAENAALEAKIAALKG

T21: P6-AA-1HAA-R
T21 chain: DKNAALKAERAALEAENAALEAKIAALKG

T22: P6-AA-1HAA-V
T22 chain: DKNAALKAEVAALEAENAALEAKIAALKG

T23: P6-AA-1HAA-K
T23 chain: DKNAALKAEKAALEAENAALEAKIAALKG


Assays:
Experiment in all cases: two-hybrid library CCmax;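 also: natural log of median RNA to DNA barcode read ratio; higher means stronger binding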
P2-AA-12HAA-H = target: T1, P2-AA-12HAA-H; details: mean of both orientations
P2-AA-12HAA-S = target: T2, P2-AA-12HAA-S
P2-AA-12HAA-R = target: T3, P2-AA-12HAA-R
P2-AA-12HAA-L = target: T4, P2-AA-12HAA-L; details: mean of both orientations
P2-AA-12HAA-E = target: T5, P2-AA-12HAA-E
P2-AA-12HAA-I = target: T6, P2-AA-12HAA-I; details: mean of both orientations
P2-AA-12HAA-V = target: T7, P2-AA-12HAA-V; details: mean of both orientations
P2-AA-12HAA-K = target: T8, P2-AA-12HAA-K; details: mean of both orientations
P2-AA-12HAA-T = target: T9, P2-AA-12HAA-T; details: mean of both orientations
P2-AA-12HAA-D = target: T10, P2-AA-12HAA-D; details: mean of both orientations
P2-AA-12HAA-Y = target: T11, P2-AA-12HAA-Y; details: mean of both orientations
P2-AA = target: T12, P2-AA; details: mean of both orientations
P6-AA-1HAA-L = target: T13, P6-AA-1HAA-L; details: mean of both orientations
P6-AA-1HAA-T = target: T14, P6-AA-1HAA-T; details: mean of both orientations
P6-AA-1HAA-Y = target: T15, P6-AA-1HAA-Y; details: mean of both orientations
P6-AA-1HAA-D = target: T16, P6-AA-1HAA-D; details: mean of both orientations
P6-AA-1HAA-E = target: T17, P6-AA-1HAA-E; details: mean of both orientations
P6-AA-1HAA-N = target: T18, P6-AA-1HAA-N; details: mean of both orientations
P6-AA-1HAA-H = target: T19, P6-AA-1HAA-H; details: mean of both orientations
P6-AA-1HAA-S = target: T20, P6-AA-1HAA-S; details: mean of both orientations
P6-AA-1HAA-R = target: T21, P6-AA-1HAA-R; details: mean of both orientations
P6-AA-1HAA-V = target: T22, P6-AA-1HAA-V; details: mean of both orientations
P6-AA-1HAA-K = target: T23, P6-AA-1HAA-K; details: mean of both orientations

interaction score (P2-AA-12HAA-H)	interaction score (P2-AA-12HAA-L)	interaction score (P2-AA-12HAA-I)	interaction score (P2-AA-12HAA-V)	interaction score (P2-AA-12HAA-K)	interaction score (P2-AA-12HAA-T)	interaction score (P2-AA-12HAA-D)	interaction score (P2-AA-12HAA-Y)	interaction score (P2-AA)	interaction score (P6-AA-1HAA-L)	interaction score (P6-AA-1HAA-T)	interaction score (P6-AA-1HAA-Y)	interaction score (P6-AA-1HAA-D)	interaction score (P6-AA-1HAA-E)	interaction score (P6-AA-1HAA-N)	interaction score (P6-AA-1HAA-H)	interaction score (P6-AA-1HAA-S)	interaction score (P6-AA-1HAA-R)	interaction score (P6-AA-1HAA-V)	interaction score (P6-AA-1HAA-K)	Binder	also measured
1.67	2.1	1.8	1.72	1.89	1.76	-0.93	2.02	1.97	–	–	–	–	–	–	–	–	–	–	–	DEIAALEAEYAALEAEYAALEAEIAALEG [P1-AA-12HAA-Y]	interaction score (P2-AA-12HAA-S; mean of both orientations): 1.85; interaction score (P2-AA-12HAA-R; mean of both orientations): 1.4; interaction score (P2-AA-12HAA-E): 1.74
–	–	–	–	–	–	–	–	–	1.91	0.456	1.19	-0.594	0.317	0.702	1.47	0.78	0.322	2.01	0.498	DENAALEAKTAALKAKNAALKAEIAALEG [P5-AA-1HAA-T]	–
–	–	–	–	–	–	–	–	–	2.32	1.93	2.48	0.818	2.25	1.42	1.79	1.53	1.76	2.09	2.25	DENAALEAKVAALKAKNAALKAEIAALEG [P5-AA-1HAA-V]	–
–	–	–	–	–	–	–	–	–	0.711	-0.112	-0.801	-1.78	-1.42	-0.649	-1.76	-1.13	-1.33	1.57	-1.41	DENAALEAKEAALKAKNAALKAEIAALEG [P5-AA-1HAA-E]	–
–	–	–	–	–	–	–	–	–	1.9	1.49	0.439	-0.238	-0.637	1.97	-0.596	0.88	-1.13	2.15	-0.495	DENAALEAKHAALKAKNAALKAEIAALEG [P5-AA-1HAA-H]	–
1.84	2.35	1.68	2.38	1.6	2.1	1.26	1.68	1.49	–	–	–	–	–	–	–	–	–	–	–	DEIAALEAELAALEAELAALEAEIAALEG [P1-AA-12HAA-L]	interaction score (P2-AA-12HAA-S): 1.59; interaction score (P2-AA-12HAA-R; mean of both orientations): 1.7; interaction score (P2-AA-12HAA-E; mean of both orientations): 1.74
1.5	1.97	1.84	1.98	1.37	1.56	-1.06	1.53	2.07	–	–	–	–	–	–	–	–	–	–	–	DEIAALEAETAALEAETAALEAEIAALEG [P1-AA-12HAA-T]	interaction score (P2-AA-12HAA-S; mean of both orientations): 1.33; interaction score (P2-AA-12HAA-R): 1.79; interaction score (P2-AA-12HAA-E; mean of both orientations): 0.124
